Numbering of substitutions follows the chain as printed. Numbers in names are those of the source. Each block holds one binder with its values, some of them ahead of it.
Target: T1, wild type human Kv3.3 (KCNC3) voltage-gated potassium channel subunit (human, UniProt Q14003 1-757)
T1 sequence: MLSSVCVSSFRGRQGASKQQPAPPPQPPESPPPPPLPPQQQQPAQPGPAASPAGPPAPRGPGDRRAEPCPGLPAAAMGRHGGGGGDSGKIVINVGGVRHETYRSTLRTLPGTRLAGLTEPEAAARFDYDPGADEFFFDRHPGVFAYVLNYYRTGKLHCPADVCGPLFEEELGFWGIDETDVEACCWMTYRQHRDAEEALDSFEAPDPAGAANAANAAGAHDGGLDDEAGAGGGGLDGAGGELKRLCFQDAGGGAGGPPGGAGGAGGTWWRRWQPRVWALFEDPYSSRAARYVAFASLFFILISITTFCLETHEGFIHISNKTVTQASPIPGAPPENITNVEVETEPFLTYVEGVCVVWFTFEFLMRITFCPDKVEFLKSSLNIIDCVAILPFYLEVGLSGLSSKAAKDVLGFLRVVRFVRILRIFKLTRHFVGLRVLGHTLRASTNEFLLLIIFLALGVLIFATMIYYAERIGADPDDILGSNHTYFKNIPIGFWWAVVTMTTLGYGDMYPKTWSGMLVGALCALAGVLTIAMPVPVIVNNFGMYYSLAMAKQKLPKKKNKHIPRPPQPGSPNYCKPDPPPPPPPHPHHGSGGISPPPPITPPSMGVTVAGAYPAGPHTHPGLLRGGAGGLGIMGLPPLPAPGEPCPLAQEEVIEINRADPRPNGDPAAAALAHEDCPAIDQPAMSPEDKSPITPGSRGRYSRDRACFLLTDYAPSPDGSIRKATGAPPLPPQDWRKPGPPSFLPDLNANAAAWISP
Assay: cell-based or functional assay

current amplitudes measured at +60 mV, 1:1 expression ratio of wild type and R423H, Xenopus oocytes: ~20 % of wild type expressed alone
B1: Kv3.3 R423H mutant subunit (other)
chain: T1 sequence with R423H

current amplitudes, 1:1 expression ratio of wild type and R366H, Xenopus oocytes: ~50 % of wild type expressed alone
B2: Kv3.3 R366H mutant subunit (other)
chain: T1 sequence with R366H

Reference: patent publication US20090286243A1 (CEDARS SINAI MEDICAL CENTER, published 2009)
